Tests used:
[1] = target: T1, apo-Anamorsin (cytokine induced apoptosis inhibitor-1), biotinylated (human, UniProt Q6FI81 1-312, biotin (EZ-Link Sulfo-NHS-LC-biotin, 2:1 molar ratio of reagent to protein)); experiment: BLI; Octet Red96; biotinylated apo-Anamorsin (3.5 uM) immobilised on streptavidin biosensors; holo-NEET in solution; 50 mM bis-tris, 100 mM NaCl, 0.1% Tween 20, 0.5 mg/ml BSA, pH 7.0, without DTT; association 900 s, dissociation 1800 s; 1:1 model; settings: both partners purified
T1 construct: Anamorsin (CIAPIN-1), human cDNA (Abgent) subcloned into pET28-a(+) between NdeI and XhoI; Without clusters; The vector adds a 6x his-tag and a thrombin cleavage site at the N-terminus; no cleavage is described; also called CIAPIN-1; source: E. coli BL-21 Codon Plus (DE3) RIL, purified (Ni-NTA, HiTrap Q anion exchange); 2Fe-2S cluster removed by the method of Kennedy and Beinert
T1 sequence (Q6FI81 whole entry): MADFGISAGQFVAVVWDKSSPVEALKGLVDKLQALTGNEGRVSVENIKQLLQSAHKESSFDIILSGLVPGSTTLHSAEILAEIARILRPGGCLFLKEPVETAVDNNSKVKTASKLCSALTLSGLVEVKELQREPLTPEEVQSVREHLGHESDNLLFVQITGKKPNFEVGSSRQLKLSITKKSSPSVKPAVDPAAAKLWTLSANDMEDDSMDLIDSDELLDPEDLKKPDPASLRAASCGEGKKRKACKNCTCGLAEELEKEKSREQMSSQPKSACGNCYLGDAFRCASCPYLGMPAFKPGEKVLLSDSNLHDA

[2] = target: T2, holo-Anamorsin (prepared via cluster transfer from NAF-1), biotinylated (human, UniProt Q6FI81 1-312, biotin); experiment: BLI; biotinylated holo-Anamorsin (prepared via cluster transfer) immobilised on streptavidin biosensors; 16 uM holo-NAF-1 or 32 uM holo-mNT; association 900 s, dissociation 1800 s; 2:1 heterogeneous ligand model; average of two trials; settings: both partners purified
T2 construct: Anamorsin (CIAPIN-1), human cDNA (Abgent) subcloned into pET28-a(+) between NdeI and XhoI; same chain as m3; also called post-cluster transfer Anamorsin; CIAPIN-1; source: E. coli BL-21 Codon Plus (DE3) RIL, purified; apo form loaded by cluster transfer from NAF-1, then purified from NAF-1 on HiTrap Q anion exchange
T2 sequence (Q6FI81 whole entry): as above

koff [1] [s⁻¹] | kon [1] [M⁻¹ s⁻¹] | fold change of koff against apo-Anamorsin [2] [fold] | Binder
0.0011 | 783 |  | nutrient-deprivation autophagy factor-1 (NAF-1), soluble domain (residues 57-135), holo (domain or fragment, human, UniProt Q8N5K1 57-135, looked up, NAF-1 (CISD2), human, soluble domain, residues 57-135; Homodimer; each protomer holds one 2Fe-2S cluster (3Cys:1His); at least 98% cluster occupancy; also called holo-NAF-1; miner1; source: expressed and purified as described previously [19, 23]) RPFLPKKKQQKDSLINLKIQKENPKVVNEINIEDLCLTKAAYCRCWRSKTFPACDGSHNKHNELTGDNVGPLILKKKEV
6.17e-05 | 317 | 50 | mitoNEET (mNT), soluble domain (residues 33-108), holo (domain or fragment, human, UniProt Q9NZ45 33-108, looked up, mitoNEET (CISD1), human, soluble domain, residues 33-108; Homodimer; each protomer holds one 2Fe-2S cluster (3Cys:1His); at least 98% cluster occupancy; also called holo-mNT; CISD1; source: expressed and purified as described previously [19, 23]) RFYVKDHRNKAMINLHIQKDNPKIVHAFDMEDLGDKAVYCRCWRSKKFPFCDGAHTKHNEETGDNVGPLIIKKKET

From paper PMC4598119, “Cancer-Related NEET Proteins Transfer 2Fe-2S Clusters to Anamorsin, a Protein Required for Cytosolic Iron-Sulfur Cluster Biogenesis” (PLoS ONE, 2015)
